Assay results taken from patent EP4680727A2 (dated 2026).

What was measured:
[1] = molecular target: T1, murine CD8a (mouse, UniProt P01731 28-247); assay: cell-based or functional assay
[2] = molecular target: T2, Ad5FDgT fiber (Human Adenovirus 5 fiber with DogTag inserted at the HI loop domain of the fiber knob) (Human Adenovirus 5); assay: SDS-PAGE (complete shift of the fiber-DogTag band) and western blot against the fiber tail, purified Ad-Ab complexes
T2 chain: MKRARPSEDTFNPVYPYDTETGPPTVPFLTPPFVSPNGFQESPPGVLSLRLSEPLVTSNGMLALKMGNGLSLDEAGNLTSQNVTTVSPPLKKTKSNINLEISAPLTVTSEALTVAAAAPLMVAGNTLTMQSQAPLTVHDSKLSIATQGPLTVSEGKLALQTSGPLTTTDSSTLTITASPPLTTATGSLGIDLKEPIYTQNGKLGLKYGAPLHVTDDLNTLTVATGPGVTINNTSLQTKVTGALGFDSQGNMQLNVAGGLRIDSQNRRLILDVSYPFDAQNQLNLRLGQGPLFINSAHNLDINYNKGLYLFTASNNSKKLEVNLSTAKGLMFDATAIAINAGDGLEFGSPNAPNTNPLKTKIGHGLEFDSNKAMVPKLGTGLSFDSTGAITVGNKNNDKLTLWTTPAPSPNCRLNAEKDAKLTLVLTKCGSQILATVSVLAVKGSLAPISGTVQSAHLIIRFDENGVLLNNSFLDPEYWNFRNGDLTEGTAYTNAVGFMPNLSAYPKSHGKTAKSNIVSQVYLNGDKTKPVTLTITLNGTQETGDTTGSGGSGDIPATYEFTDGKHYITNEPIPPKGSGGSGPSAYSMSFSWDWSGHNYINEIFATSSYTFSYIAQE

[3] = molecular target: T2, Ad5FDgT fiber (Human Adenovirus 5 fiber …); assay: covalent DogCatcher/DogTag conjugation to the virus capsid
[4] = molecular target: T2, Ad5FDgT fiber (Human Adenovirus 5 fiber …); assay: SDS-PAGE gel shift of the fiber band after co-incubation at room temperature
[5] = molecular target: T1, murine CD8a; assay: flow cytometry on murine splenocytes, gated on CD8+, detected with anti-His Tag antibody
[6] = molecular target: T3, murine CD19 (mouse, UniProt P25918 19-547); assay: cell-based or functional assay
T3 sequence: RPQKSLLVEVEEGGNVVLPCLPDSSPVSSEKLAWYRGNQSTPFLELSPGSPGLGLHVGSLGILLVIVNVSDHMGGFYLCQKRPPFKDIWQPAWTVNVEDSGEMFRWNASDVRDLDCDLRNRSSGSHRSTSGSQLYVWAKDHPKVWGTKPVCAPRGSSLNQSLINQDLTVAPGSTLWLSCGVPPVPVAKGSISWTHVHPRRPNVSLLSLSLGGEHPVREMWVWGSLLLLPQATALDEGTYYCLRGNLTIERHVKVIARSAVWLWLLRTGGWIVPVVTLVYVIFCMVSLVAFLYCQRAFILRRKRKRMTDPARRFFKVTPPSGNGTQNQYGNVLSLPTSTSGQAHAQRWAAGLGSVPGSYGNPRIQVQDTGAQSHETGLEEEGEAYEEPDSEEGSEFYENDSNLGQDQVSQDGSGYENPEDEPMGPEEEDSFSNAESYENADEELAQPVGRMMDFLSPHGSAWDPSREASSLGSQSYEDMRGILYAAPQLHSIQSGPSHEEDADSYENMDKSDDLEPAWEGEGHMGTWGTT

T1 sequence (P01731 28-247): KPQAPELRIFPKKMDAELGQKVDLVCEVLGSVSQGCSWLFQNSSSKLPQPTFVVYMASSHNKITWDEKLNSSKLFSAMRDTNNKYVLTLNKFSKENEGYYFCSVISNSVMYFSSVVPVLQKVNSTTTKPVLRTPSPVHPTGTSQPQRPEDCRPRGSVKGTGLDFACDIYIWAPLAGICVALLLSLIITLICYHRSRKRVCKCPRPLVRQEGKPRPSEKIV

B1: YTS169DgC (YTS169 anti-murine CD8a scFv fused to DogCatcher; IGHV1-46 signal sequence-YTS169 scFv-(G4S)3-DgC-6xHis) (scFv)
scFv: EVKLQESGGGLVQPGRSLKLSCAASGFNFNDYWMGWVRQAPGKGLEWIGEINKDSSTINYTPSLKDKFTISRDNAQNTLYLQMSKLGSEDTAIYYCARARGMMVLIIPHYFDYWGQGVMVTVSSGGGGSGGGGSGGGGSDIVLTQSPAMAMSPGERITISCRASESVSTRMHWYQQKPGQQPKLLIYGASNLESGVPARFSGSGSGTDFTLTIDPVEANDTATYFCQQSWYDPWTFGGGTKLELKGGGGSGGGGSGGGGSAMKLGEIEFIKVDKTDKKPLRGAVFSLQKQHPDYPDIYGAIDQNGTYQDVRTGEDGKLTFTNLSDGKYRLIENSEPPGYKPVQNKPIVSFRIVDGEVRDVTSIVPQGSSGSHHHHHH
notes: also called YTS169 scFv-DogCatcher; anti-mCD8 YTS169
gene expression in CD8a+ T cells in vivo [1]: ~2 fold | binding result [2]: binds

B2: 18B12DgC (18B12 anti-murine CD20 scFv fused to DogCatcher; IL-2 signal sequence-18B12 scFV-(G4S)3-DgC-6xHis) (scFv)
scFv: QVQLQQPGAELVRPGTSVKLSCKASGYTFTSYWMHWIKQRPGQGLEWIGVIDPSDNYTKYNQKFKGKATLTVDTSSSTAYMQLSSLTSEDSAVYFCAREGYYGSSPWFAYWGQGTLVTVSSGGGGSGGGGSGGGGSQIVMSQSPAILSASPGEKVTMTCRARSSVSYIHWYQQKPGSSPKPWIYATSNLASGVPGRFSGSGSGTSYSLTITRVEAEDAATYYCQQWSSKPPTFGGGTKLEIKGGGGSGGGGSGGGGSAMKLGEIEFIKVDKTDKKPLRGAVFSLQKQHPDYPDIYGAIDQNGTYQDVRTGEDGKLTFTNLSDGKYRLIENSEPPGYKPVQNKPIVSFRIVDGEVRDVTSIVPQGSSGSHHHHHH
notes: also called 18B12 scFv-DogCatcher
binding result [3]: binds

B3: DogCatcher (bacterially produced, 6xHis-TEV-DogCatcher) (other)
chain: MSYYHHHHHHDYDIPTTENLYFQGAMKLGEIEFIKVDKTDKKPLRGAVFSLQKQHPDYPDIYGAIDQNGTYQDVRTGEDGKLTFTNLSDGKYRLIENSEPPGYKPVQNKPIVSFRIVDGEVRDVTSIVPQ
notes: also called DgC; pDEST14-DogCatcher product
binding result [4]: binds

B4: 2.43DgC (2.43 scFv fused to DogCatcher; IGHV1-46 signal sequence-2.43 scFv-(G4S)3-DgC-6xHis) (scFv)
scFv: EVQLVESGGGLVQPGRSLKLSCAASGFTFSNYYMAWVRQAPTKGLEWVAYINTGGGTTYYRDSVKGRFTISRDDAKSTLYLQMDSLRSEDTATYYCTTAIGYYFDYWGQGVMVTVSSGGGGSGGGGSGGGGSDIQLTQSPASLSASLGETVSIECLASEDIYSYLAWYQQKPGKSPQVLIYAANRLQDGVPSRFSGSGSGTQYSLKISGMQPEDEGDYFCLQGSKFPYTFGAGTKLELKGGGGSGGGGSGGGGSAMKLGEIEFIKVDKTDKKPLRGAVFSLQKQHPDYPDIYGAIDQNGTYQDVRTGEDGKLTFTNLSDGKYRLIENSEPPGYKPVQNKPIVSFRIVDGEVRDVTSIVPQGSSGSHHHHHH
notes: also called 2.43 scFv-DogCatcher
binding result [5]: binds

B5: 1D3DgC (1D3 anti-murine CD19 scFv fused to DogCatcher; IL-2 signal sequence-1D3 scFv-(G4S)3-DgC-6xHis) (scFv)
scFv: DIQMTQSPASLSTSLGETVTIQCQASEDIYSGLAWYQQKPGKSPQLLIYGASDLQDGVPSRFSGSGSGTQYSLKITSMQTEDEGVYFCQQGLTYPRTFGGGTKLELKGGGGSGGGGSGGGGSEVQLQQSGAELVRPGTSVKLSCKVSGDTITFYYMHFVKQRPGQGLEWIGRIDPEDESTKYSEKFKNKATLTADTSSNTAYLKLSSLTSEDTATYFCIYGGYYFDYWGQGVMVTVSSGGGGSGGGGSGGGGSAMKLGEIEFIKVDKTDKKPLRGAVFSLQKQHPDYPDIYGAIDQNGTYQDVRTGEDGKLTFTNLSDGKYRLIENSEPPGYKPVQNKPIVSFRIVDGEVRDVTSIVPQGSSGSHHHHHH
notes: also called lD3DgC; 1D3 scFv-DogCatcher
gene expression in B cells in vivo, against the parent vector [6]: ~2 fold | binding result [3]: binds

B6: FMC63 scFv-DogCatcher fusion (anti-human CD19; IL-2 signal sequence-FMC63 scFv-(G4S)3-DgC-6xHis) (scFv)
scFv: DIQMTQTTSSLSASLGDRVTISCRASQDISKYLNWYQQKPDGTVKLLIYHTSRLHSGVPSRFSGSGSGTDYSLTISNLEQEDIATYFCQQGNTLPYTFGGGTKLEITGGGGSGGGGSGGGGSEVKLQESGPGLVAPSQSLSVTCTVSGVSLPDYGVSWIRQPPRKGLEWLGVIWGSETTYYNSALKSRLTIIKDNSKSQVFLKMNSLQTDDTAIYYCAKHYYYGGSYAMDYWGQGTSVTVSSGGGGSGGGGSGGGGSAMKLGEIEFIKVDKTDKKPLRGAVFSLQKQHPDYPDIYGAIDQNGTYQDVRTGEDGKLTFTNLSDGKYRLIENSEPPGYKPVQNKPIVSFRIVDGEVRDVTSIVPQGSSGSHHHHHH
notes: also called FMC163DgC (plasmid name as printed)
binding result [3]: binds
